Holding throughout (conditions): both partners purified
Assay [1] addresses T1, soluble human BAFF (aa 134-285) L224A (human, UniProt Q9Y275 134-285, L224A).
T1 construct: also called BAFF L224A; source: E. coli BL21 (DE3), purified as described for wild-type BAFF; not shown: His6, N-terminal, cleaved
The assay can be described thus: SPR; about 1000 RU of belimumab Fab immobilised on a CM-5 chip by amine coupling; BAFF wild type or mutant flowed at 2 to 250 nM; 20 mM sodium citrate pH 5.6, 200 mM NaCl; 25 °C; BIAcore T100; sensorgrams locally fitted; in duplicate. Background: In SPR one partner is held on a chip, and binding of the other changes the refractive index at the surface.

Assay [2] concerns the target T2, soluble human BAFF (aa 134-285) R265A (human, UniProt Q9Y275 134-285, R265A).
T2 construct: also called BAFF R265A; source: E. coli BL21 (DE3), purified as described for wild-type BAFF; not shown: His6, N-terminal, cleaved
The assay is described as above.

The target of assay [3] is T3, soluble human BAFF (aa 134-285) E266A (human, UniProt Q9Y275 134-285, E266A).
T3 construct: also called BAFF E266A; source: E. coli BL21 (DE3), purified as described for wild-type BAFF; not shown: His6, N-terminal, cleaved
The assay is described as above.

The target in assay [4] is T4, soluble human BAFF (aa 134-285) L240A (human, UniProt Q9Y275 134-285, L240A).
T4 construct: also called BAFF L240A; source: E. coli BL21 (DE3), purified as described for wild-type BAFF; not shown: His6, N-terminal, cleaved
The assay is described as above.

The target in assay [5] is T5, soluble human BAFF (aa 134-285) I233A (human, UniProt Q9Y275 134-285, I233A).
T5 construct: also called BAFF I233A; source: E. coli BL21 (DE3), purified as described for wild-type BAFF; not shown: His6, N-terminal, cleaved
The description is as above.

Assay [6] deals with T6, soluble human BAFF (aa 134-285) D222A (human, UniProt Q9Y275 134-285, D222A).
T6 construct: also called BAFF D222A; source: E. coli BL21 (DE3), purified as described for wild-type BAFF; not shown: His6, N-terminal, cleaved
The description is as above.

Assay [7] addresses T7, soluble human BAFF (aa 134-285) N242A (human, UniProt Q9Y275 134-285, N242A).
T7 construct: also called BAFF N242A; source: E. coli BL21 (DE3), purified as described for wild-type BAFF; not shown: His6, N-terminal, cleaved
Described as above.

The target in assay [8] is T8, soluble human BAFF (aa 134-285) Y206A (human, UniProt Q9Y275 134-285, Y206A).
T8 construct: also called BAFF Y206A; source: E. coli BL21 (DE3), purified as described for wild-type BAFF; not shown: His6, N-terminal, cleaved
Described as above.

The target of assay [9] is T9, soluble human BAFF (aa 134-285) R231A (human, UniProt Q9Y275 134-285, R231A).
T9 construct: also called BAFF R231A; source: E. coli BL21 (DE3), purified as described for wild-type BAFF; not shown: His6, N-terminal, cleaved
The assay is described as above.

Assay [10] addresses T10, soluble human BAFF (aa 134-285) Y163A (human, UniProt Q9Y275 134-285, Y163A).
T10 construct: also called BAFF Y163A; source: E. coli BL21 (DE3), purified as described for wild-type BAFF; not shown: His6, N-terminal, cleaved
The description is as above.

For assay [11], the target named is T11, soluble form of human BAFF (aa 134–285) (human, UniProt Q9Y275).
T11 construct: Cloned in pET-28a; On gel filtration it runs as trimer and as 60-mer (20 trimers); the trimer fractions were collected; also called BLyS; source: E. coli BL21 (DE3), purified (HisTrap, thrombin cleavage, gel filtration; trimer fractions collected); not shown: His6, N-terminal, cleaved
The assay can be described thus: SEC; analytical gel filtration, Superdex 200 Increase 10/300 GL, 20 mM HEPES pH 7.0, 200 mM NaCl; BAFF alone, Fab alone, and BAFF incubated 1 h with an excess of Fab. For orientation: SEC sorts molecules by how far they enter the pores of the column.

B1: belimumab Fab (Fab, V domains shown)
VH: QVQLQQSGAEVKKPGSSVRVSCKASGGTFNNNAINWVRQAPGQGLEWMGGIIPMFGTAKYSQNFQGRVAITADESTGTASMELSSLRSEDTAVYYCARSRDLLLFPHHALSPWGRGTMVTVSS
VL: SSELTQDPAVSVALGQTVRVTCQGDSLRSYYASWYQQKPGQAPVLVIYGKNNRPSGIPDRFSGSSSGNTASLTITGAQAEDEADYYCSSRDSSGNHWVFGGGTELTVLG
notes: followed by HHHHHH (the tag); Fab of a fully human IgG1 lambda antibody; also called belimumab Fab fragment; Benlysta Fab; source: E. coli Top10F, periplasmic expression, purified (HisTrap, gel filtration)
In the case of B1, the Kd in [1] is 7.77 nM; in assay [2], 3.79 nM; in assay [3], 2.34 nM; in assay [4] it was 1.45 nM; in assay [5], 2.64 nM; in assay [6] it was 4.34 nM. The Kd in assay [7] turned out to be 1.22 nM; in assay [8] it was 14.1 nM; in assay [9] it was 2.85 nM; in [10], 1.45 nM. Also, the koff in assay [1] worked out at 0.00119 s⁻¹; in [2], 5.59e-05 s⁻¹; in assay [3], 0.000245 s⁻¹; in assay [4] it was 0.000145 s⁻¹; in assay [5], 0.000328 s⁻¹; in assay [6] it was 0.000357 s⁻¹. The koff in assay [7] came to 0.000167 s⁻¹; in assay [8], 0.00783 s⁻¹; in assay [9] it was 0.000128 s⁻¹; in assay [10], 0.000137 s⁻¹. Moreover, the association rate constant (kon) was 153000 M⁻¹ s⁻¹ in [1]; 14800 M⁻¹ s⁻¹ in assay [2]; 105000 M⁻¹ s⁻¹ in [3]; 101000 M⁻¹ s⁻¹ in assay [4]; 124000 M⁻¹ s⁻¹ in assay [5]; 82200 M⁻¹ s⁻¹ in assay [6]. Moreover, the kon in assay [7] is 137000 M⁻¹ s⁻¹; in assay [8], 556000 M⁻¹ s⁻¹; in assay [9] it was 45000 M⁻¹ s⁻¹; in assay [10], 94400 M⁻¹ s⁻¹.

B2: belimumab Fab (Fab, V domains shown)
VH: QVQLQQSGAEVKKPGSSVRVSCKASGGTFNNNAINWVRQAPGQGLEWMGGIIPMFGTAKYSQNFQGRVAITADESTGTASMELSSLRSEDTAVYYCARSRDLLLFPHHALSPWGRGTMVTVSS
VL: SSELTQDPAVSVALGQTVRVTCQGDSLRSYYASWYQQKPGQAPVLVIYGKNNRPSGIPDRFSGSSSGNTASLTITGAQAEDEADYYCSSRDSSGNHWVFGGGTELTVL
notes: heavy chain of the Fab of belimumab (fully human IgG1 lambda); in the deposited structures PDB 5Y9J and 5Y9K; lambda light chain of belimumab; also called Benlysta; belimumab Fab fragment; source: E. coli Top10F, periplasmic expression, purified (HisTrap, gel filtration)
In the case of B2, in [11], the “stoichiometry N” value is 1 BAFF protomer per Fab (printed 3:3).

One may read the Kd as the equilibrium constant for the complex coming apart. Low values mean a tighter complex, high ones a looser complex. What is called koff is a measure of how fast the partners let go of each other. High values mean fast dissociation, low ones slow dissociation. Usually kon stands for the rate constant with which the complex forms. A high value points to fast association. The stoichiometry N is the number of molecules, sites or subunits per partner or assembly.

The values above are taken from article PMC5865148 (Nature Communications, 2018).
